Reference: publication PMC10261046, “Mechanism of small molecule inhibition of Plasmodium falciparum myosin A informs antimalarial drug design” (Nature Communications, 2023)

T1: Full-length PfMyoA heavy chain WT (Plasmodium falciparum, UniProt Q8IDR3 1-818)
T1 sequence (heavy): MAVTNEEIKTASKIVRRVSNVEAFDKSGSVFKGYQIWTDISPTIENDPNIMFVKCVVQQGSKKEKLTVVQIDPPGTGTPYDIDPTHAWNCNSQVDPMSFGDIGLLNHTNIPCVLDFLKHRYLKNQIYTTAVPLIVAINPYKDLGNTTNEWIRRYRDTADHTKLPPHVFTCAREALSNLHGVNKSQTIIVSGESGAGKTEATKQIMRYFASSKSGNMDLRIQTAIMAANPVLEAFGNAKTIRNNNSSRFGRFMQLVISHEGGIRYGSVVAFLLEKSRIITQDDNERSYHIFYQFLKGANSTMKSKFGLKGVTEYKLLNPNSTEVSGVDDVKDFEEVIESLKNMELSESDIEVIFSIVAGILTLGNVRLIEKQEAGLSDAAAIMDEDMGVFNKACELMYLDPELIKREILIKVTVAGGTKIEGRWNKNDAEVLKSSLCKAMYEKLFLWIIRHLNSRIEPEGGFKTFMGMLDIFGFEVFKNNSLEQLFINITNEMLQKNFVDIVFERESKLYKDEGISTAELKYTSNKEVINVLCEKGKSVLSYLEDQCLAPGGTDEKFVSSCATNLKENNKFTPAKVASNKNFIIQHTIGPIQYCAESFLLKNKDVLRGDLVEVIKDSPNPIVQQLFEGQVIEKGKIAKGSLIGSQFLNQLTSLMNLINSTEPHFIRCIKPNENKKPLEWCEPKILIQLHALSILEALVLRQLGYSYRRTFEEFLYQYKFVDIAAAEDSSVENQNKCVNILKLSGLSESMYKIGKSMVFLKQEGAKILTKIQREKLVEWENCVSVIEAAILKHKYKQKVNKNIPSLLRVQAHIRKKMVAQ


What was measured:
[1] = target: T1, Full-length PfMyoA heavy chain WT; assay: crystal structure; PfMyoA/ELC/MTIP-ΔN co-crystallized with or without KNX-002 and with or without ATPγS; hanging drop, 4 °C, 2.0 M ammonium sulfate, 0.1 M sodium HEPES pH 7.5, 4% PEG400; conditions: both partners purified
[2] = target: Skeletal muscle actin (chicken), filaments (chicken, UniProt P68139 1-377); assay: count of fluorescent actin filaments on surface-immobilized myosin (modified in vitro motility assay); PfMyoA surface-immobilized; same buffer, 0% methylcellulose, 30 °C; no nucleotide (NF); with or without KNX-002; conditions: both partners purified

Row | Binder | binding result [1] | binding result [2]
1 | MTIP-ΔN (PfMTIP lacking residues 1-E60) (domain or fragment, also called ΔN-MTIP) light: SVADIQQLEEKVDESDVRIYFNEKSSGGKISIDNASYNARKLGLAPSSIDEKKIKELYGDNLTYEQYLEYLSICVHDKDNVEELIKMFAHFDNNCTGYLTKSQMKNILTTWGDALTDQEAIDALNAFSSEDNIDYKLFCEDILQ | binds | –
2 | PfMyoA (full length Plasmodium falciparum myosin A heavy chain WT with bound light chains PfELC and PfMTIP) (complex, also called class XIV myosin A; M.ADP; copies: + +) chain 1: MAVTNEEIKTASKIVRRVSNVEAFDKSGSVFKGYQIWTDISPTIENDPNIMFVKCVVQQGSKKEKLTVVQIDPPGTGTPYDIDPTHAWNCNSQVDPMSFGDIGLLNHTNIPCVLDFLKHRYLKNQIYTTAVPLIVAINPYKDLGNTTNEWIRRYRDTADHTKLPPHVFTCAREALSNLHGVNKSQTIIVSGESGAGKTEATKQIMRYFASSKSGNMDLRIQTAIMAANPVLEAFGNAKTIRNNNSSRFGRFMQLVISHEGGIRYGSVVAFLLEKSRIITQDDNERSYHIFYQFLKGANSTMKSKFGLKGVTEYKLLNPNSTEVSGVDDVKDFEEVIESLKNMELSESDIEVIFSIVAGILTLGNVRLIEKQEAGLSDAAAIMDEDMGVFNKACELMYLDPELIKREILIKVTVAGGTKIEGRWNKNDAEVLKSSLCKAMYEKLFLWIIRHLNSRIEPEGGFKTFMGMLDIFGFEVFKNNSLEQLFINITNEMLQKNFVDIVFERESKLYKDEGISTAELKYTSNKEVINVLCEKGKSVLSYLEDQCLAPGGTDEKFVSSCATNLKENNKFTPAKVASNKNFIIQHTIGPIQYCAESFLLKNKDVLRGDLVEVIKDSPNPIVQQLFEGQVIEKGKIAKGSLIGSQFLNQLTSLMNLINSTEPHFIRCIKPNENKKPLEWCEPKILIQLHALSILEALVLRQLGYSYRRTFEEFLYQYKFVDIAAAEDSSVENQNKCVNILKLSGLSESMYKIGKSMVFLKQEGAKILTKIQREKLVEWENCVSVIEAAILKHKYKQKVNKNIPSLLRVQAHIRKKMVAQ chain 2: MASDMEEKFREAFILFSSCSDHIEMYKFFELMNSFGIILTNDEKAALPNDINMDYWLNFAKKHYNYEQPFKHINNVNEQNTNVQIKIDNFLGIMKALDTRLTESDLNILLQITNPENKSTLNLKTVSQKLTESI chain 3: MKQECNVCYFNLPDPESTLGPYDNELNYFTWGPGFEYEPEPQRKPLSIEESFENSEESEESVADIQQLEEKVDESDVRIYFNEKSSGGKISIDNASYNARKLGLAPSSIDEKKIKELYGDNLTYEQYLEYLSICVHDKDNVEELIKMFAHFDNNCTGYLTKSQMKNILTTWGDALTDQEAIDALNAFSSEDNIDYKLFCEDILQ | – | binds
3 | PfELC (natural protein, also called essential light chain) light: MASDMEEKFREAFILFSSCSDHIEMYKFFELMNSFGIILTNDEKAALPNDINMDYWLNFAKKHYNYEQPFKHINNVNEQNTNVQIKIDNFLGIMKALDTRLTESDLNILLQITNPENKSTLNLKTVSQKLTESI | binds | –
